# From patent US20250171562A1 (ALK ABELL, published 2025)
# Molecular target: T1, recombinant human IgE (human, UniProt P01854-1 1-428)
# T1 construct: made in-house (ALK); preloaded on immobilised FcεRIα in the displacement ELISA
# Assay: IgE-FcεRIα displacement ELISA
# Outline: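 Streptavidin-coated plates carried site-specifically biotinylated recombinant human FcεRIα, loaded with recombinant human IgE at 13 ng/ml. sdAbs in a pM–μM series were added for 1 h, and displaced IgE was washed off. Percent displacement was the signal reduction versus the no-sdAb control, giving EC50 and maximal effect.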
# T1 sequence (P01854 other isoform, or with tags, fused parts or gaps): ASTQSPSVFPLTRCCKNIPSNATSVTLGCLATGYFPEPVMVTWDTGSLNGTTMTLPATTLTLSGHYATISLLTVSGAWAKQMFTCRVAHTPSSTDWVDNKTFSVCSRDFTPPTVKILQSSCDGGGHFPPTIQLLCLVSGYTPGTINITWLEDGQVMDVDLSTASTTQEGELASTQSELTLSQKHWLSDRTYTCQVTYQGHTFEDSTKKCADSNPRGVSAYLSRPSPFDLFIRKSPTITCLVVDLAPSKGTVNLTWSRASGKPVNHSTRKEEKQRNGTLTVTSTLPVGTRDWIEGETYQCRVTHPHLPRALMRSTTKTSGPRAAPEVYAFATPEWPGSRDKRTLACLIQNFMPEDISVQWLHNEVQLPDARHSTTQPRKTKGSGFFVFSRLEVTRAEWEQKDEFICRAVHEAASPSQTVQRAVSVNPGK
binder,measurement,value
"B1A1(G4S)4 (bispecific antibody, two sdAbs linked by a peptide linker) QVQLQESGGGLVQTGGSLRLSCAVHGRTFSNTGMGWFRQAPGNERQFVAIISPSGTSTYYADSVKGRFTISRDPAKNTVYLQMNSLKMDDTAVYYCAASYGSNWSTLRHQRRNEYDAWGQGTQVAVSGGGGSGGGGSGGGGSGGGGSEVQLLESGGGLVQPGGSLRLSCAASGFTFGNYDMAWVRQAPGKRPEWVSSIDTGGDITHYADSVKGRFTISRDNAKNTLYLQMNSLRPEDTAVYWCATDEEYALGPNEFDYYGQGTLVTVS",EC50,1.9 nM
same,Max effect,> 95%
CIgG4B1A1(EAAAK) (Fc fusion) chain 1: GPPCPPCPAPEFLGGPSVFLFPPKPKDTLMISRTPEVTCVVVDVSQEDPEVQFNWYVDGVEVHNAKTKPREEQFNSTYRVVSVLTVLHQDWLNGKEYKCKVSNKGLPSSIEKTISKAKGQPREPQVYTLPPCQEEMTKNQVSLWCLVKGFYPSDIAVEWESNGQPENNYKTTPPVLDSDGSFFLYSRLTVDKSRWQEGNVFSCSVMHEALHNHYTQKSLSLSLGKEAAAKQVQLQESGGGLVQTGGSLRLSCAVHGRTFSNTGMGWFRQAPGNERQFVAIISPSGTSTYYADSVKGRFTISRDPAKNTVYLQMNSLKMDDTAVYYCAASYGSNWSTLRHQRRNEYDAWGQGTQVAVS chain 2: GPPCPPCPAPEFLGGPSVFLFPPKPKDTLMISRTPEVTCVVVDVSQEDPEVQFNWYVDGVEVHNAKTKPREEQFNSTYRVVSVLTVLHQDWLNGKEYKCKVSNKGLPSSIEKTISKAKGQPREPQVCTLPPSQEEMTKNQVSLSCAVKGFYPSDIAVEWESNGQPENNYKTTPPVLDSDGSFFLVSRLTVDKSRWQEGNVFSCSVMHEALHNHYTQKSLSLSLGKEAAAKEVQLLESGGGLVQPGGSLRLSCAASGFTFGNYDMAWVRQAPGKRPEWVSSIDTGGDITHYADSVKGRFTISRDNAKNTLYLQMNSLRPEDTAVYWCATDEEYALGPNEFDYYGQGTLVTVSS,EC50,3 nM
same,Max effect,> 95%
CIgG4B1A1(G3S) (Fc fusion) chain 1: GPPCPPCPAPEFLGGPSVFLFPPKPKDTLMISRTPEVTCVVVDVSQEDPEVQFNWYVDGVEVHNAKTKPREEQFNSTYRVVSVLTVLHQDWLNGKEYKCKVSNKGLPSSIEKTISKAKGQPREPQVYTLPPCQEEMTKNQVSLWCLVKGFYPSDIAVEWESNGQPENNYKTTPPVLDSDGSFFLYSRLTVDKSRWQEGNVFSCSVMHEALHNHYTQKSLSLSLGKGGGSQVQLQESGGGLVQTGGSLRLSCAVHGRTFSNTGMGWFRQAPGNERQFVAIISPSGTSTYYADSVKGRFTISRDPAKNTVYLQMNSLKMDDTAVYYCAASYGSNWSTLRHQRRNEYDAWGQGTQVAVS chain 2: GPPCPPCPAPEFLGGPSVFLFPPKPKDTLMISRTPEVTCVVVDVSQEDPEVQFNWYVDGVEVHNAKTKPREEQFNSTYRVVSVLTVLHQDWLNGKEYKCKVSNKGLPSSIEKTISKAKGQPREPQVCTLPPSQEEMTKNQVSLSCAVKGFYPSDIAVEWESNGQPENNYKTTPPVLDSDGSFFLVSRLTVDKSRWQEGNVFSCSVMHEALHNHYTQKSLSLSLGKGGGSEVQLLESGGGLVQPGGSLRLSCAASGFTFGNYDMAWVRQAPGKRPEWVSSIDTGGDITHYADSVKGRFTISRDNAKNTLYLQMNSLRPEDTAVYWCATDEEYALGPNEFDYYGQGTLVTVSS,EC50,3.1 nM
same,Max effect,> 95%
CIgG4B1A1(EAAAK)2 (Fc fusion) chain 1: GPPCPPCPAPEFLGGPSVFLFPPKPKDTLMISRTPEVTCVVVDVSQEDPEVQFNWYVDGVEVHNAKTKPREEQFNSTYRVVSVLTVLHQDWLNGKEYKCKVSNKGLPSSIEKTISKAKGQPREPQVYTLPPCQEEMTKNQVSLWCLVKGFYPSDIAVEWESNGQPENNYKTTPPVLDSDGSFFLYSRLTVDKSRWQEGNVFSCSVMHEALHNHYTQKSLSLSLGKEAAAKEAAAKQVQLQESGGGLVQTGGSLRLSCAVHGRTFSNTGMGWFRQAPGNERQFVAIISPSGTSTYYADSVKGRFTISRDPAKNTVYLQMNSLKMDDTAVYYCAASYGSNWSTLRHQRRNEYDAWGQGTQVAVS chain 2: GPPCPPCPAPEFLGGPSVFLFPPKPKDTLMISRTPEVTCVVVDVSQEDPEVQFNWYVDGVEVHNAKTKPREEQFNSTYRVVSVLTVLHQDWLNGKEYKCKVSNKGLPSSIEKTISKAKGQPREPQVCTLPPSQEEMTKNQVSLSCAVKGFYPSDIAVEWESNGQPENNYKTTPPVLDSDGSFFLVSRLTVDKSRWQEGNVFSCSVMHEALHNHYTQKSLSLSLGKEAAAKEAAAKEVQLLESGGGLVQPGGSLRLSCAASGFTFGNYDMAWVRQAPGKRPEWVSSIDTGGDITHYADSVKGRFTISRDNAKNTLYLQMNSLRPEDTAVYWCATDEEYALGPNEFDYYGQGTLVTVSS,EC50,4.1 nM
same,Max effect,> 95%
A1B1(G4S)4 (bispecific antibody) EVQLLESGGGLVQPGGSLRLSCAASGFTFGNYDMAWVRQAPGKRPEWVSSIDTGGDITHYADSVKGRFTISRDNAKNTLYLQMNSLRPEDTAVYWCATDEEYALGPNEFDYYGQGTLVTVSGGGGSGGGGSGGGGSGGGGSQVQLQESGGGLVQTGGSLRLSCAVHGRTFSNTGMGWFRQAPGNERQFVAIISPSGTSTYYADSVKGRFTISRDPAKNTVYLQMNSLKMDDTAVYYCAASYGSNWSTLRHQRRNEYDAWGQGTQVAVS,EC50,0.9 nM
same,Max effect,> 95%
CIgG4B1A1(G2SG2S) (Fc fusion) chain 1: GPPCPPCPAPEFLGGPSVFLFPPKPKDTLMISRTPEVTCVVVDVSQEDPEVQFNWYVDGVEVHNAKTKPREEQFNSTYRVVSVLTVLHQDWLNGKEYKCKVSNKGLPSSIEKTISKAKGQPREPQVYTLPPCQEEMTKNQVSLWCLVKGFYPSDIAVEWESNGQPENNYKTTPPVLDSDGSFFLYSRLTVDKSRWQEGNVFSCSVMHEALHNHYTQKSLSLSLGKGGSGGSQVQLQESGGGLVQTGGSLRLSCAVHGRTFSNTGMGWFRQAPGNERQFVAIISPSGTSTYYADSVKGRFTISRDPAKNTVYLQMNSLKMDDTAVYYCAASYGSNWSTLRHQRRNEYDAWGQGTQVAVS chain 2: GPPCPPCPAPEFLGGPSVFLFPPKPKDTLMISRTPEVTCVVVDVSQEDPEVQFNWYVDGVEVHNAKTKPREEQFNSTYRVVSVLTVLHQDWLNGKEYKCKVSNKGLPSSIEKTISKAKGQPREPQVCTLPPSQEEMTKNQVSLSCAVKGFYPSDIAVEWESNGQPENNYKTTPPVLDSDGSFFLVSRLTVDKSRWQEGNVFSCSVMHEALHNHYTQKSLSLSLGKGGSGGSEVQLLESGGGLVQPGGSLRLSCAASGFTFGNYDMAWVRQAPGKRPEWVSSIDTGGDITHYADSVKGRFTISRDNAKNTLYLQMNSLRPEDTAVYWCATDEEYALGPNEFDYYGQGTLVTVSS,EC50,3.8 nM
same,Max effect,> 95%
CIgG4B1A1(G2S) (Fc fusion) chain 1: GPPCPPCPAPEFLGGPSVFLFPPKPKDTLMISRTPEVTCVVVDVSQEDPEVQFNWYVDGVEVHNAKTKPREEQFNSTYRVVSVLTVLHQDWLNGKEYKCKVSNKGLPSSIEKTISKAKGQPREPQVYTLPPCQEEMTKNQVSLWCLVKGFYPSDIAVEWESNGQPENNYKTTPPVLDSDGSFFLYSRLTVDKSRWQEGNVFSCSVMHEALHNHYTQKSLSLSLGKGGSQVQLQESGGGLVQTGGSLRLSCAVHGRTFSNTGMGWFRQAPGNERQFVAIISPSGTSTYYADSVKGRFTISRDPAKNTVYLQMNSLKMDDTAVYYCAASYGSNWSTLRHQRRNEYDAWGQGTQVAVS chain 2: GPPCPPCPAPEFLGGPSVFLFPPKPKDTLMISRTPEVTCVVVDVSQEDPEVQFNWYVDGVEVHNAKTKPREEQFNSTYRVVSVLTVLHQDWLNGKEYKCKVSNKGLPSSIEKTISKAKGQPREPQVCTLPPSQEEMTKNQVSLSCAVKGFYPSDIAVEWESNGQPENNYKTTPPVLDSDGSFFLVSRLTVDKSRWQEGNVFSCSVMHEALHNHYTQKSLSLSLGKGGSEVQLLESGGGLVQPGGSLRLSCAASGFTFGNYDMAWVRQAPGKRPEWVSSIDTGGDITHYADSVKGRFTISRDNAKNTLYLQMNSLRPEDTAVYWCATDEEYALGPNEFDYYGQGTLVTVSS,EC50,3.4 nM
same,Max effect,> 95%
